According to patent US11607466B2, “Tumor and immune cell imaging based on PD-L1 expression” (The Johns Hopkins University, priority 2016, dated 2023):

Tests used:
[1] = target: human PD-L1 (Homo sapiens, UniProt Q9NZQ7); details: read-out: dissociation constant (Kd), human PD-L1; cited from earlier work
[2] = target: T1, PD-L1 in A549-iPDL1 cells (Homo sapiens, UniProt Q9NZQ7); assay: Binding studies in doxycycline-inducible A549-iPDL1 cells; type: cell-based; details: 60 nM mAb
T1 construct: expressed in transfected cells; host or cells: A549 NSCLC cells, lentiviral pINDUCER20, G418-selected, doxycycline-induced
T1 sequence (Q9NZQ7 19-290): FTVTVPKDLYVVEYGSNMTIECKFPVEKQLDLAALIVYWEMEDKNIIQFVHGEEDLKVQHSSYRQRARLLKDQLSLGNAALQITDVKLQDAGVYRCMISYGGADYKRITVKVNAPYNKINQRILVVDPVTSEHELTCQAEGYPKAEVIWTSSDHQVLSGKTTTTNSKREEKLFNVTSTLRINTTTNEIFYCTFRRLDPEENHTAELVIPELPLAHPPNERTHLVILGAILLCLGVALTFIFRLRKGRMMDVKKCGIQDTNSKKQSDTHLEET
From the text: To do so, an A549 NSCLC cell line with doxycycline-inducible PD-L1 expression (A549-iPD-L1) was generated. A549 is a Kras G12S lung adenocarcinoma cell line that expresses low PD-L1 at baseline.

[3] = target: T2, PD-L1 in A549-iPDL1 tumors (Homo sapiens, UniProt Q9NZQ7); assay: [64Cu]WL12 PET and biodistribution in A549-iPDL1 and A549 xenografts; type: in vivo; details: AtzMab 20 mg/kg
T2 construct: expressed in transfected cells; host or cells: A549 NSCLC cells, lentiviral pINDUCER20, G418-selected, doxycycline-induced; as xenografts for the in vivo unit
T2 sequence (Q9NZQ7 19-290): as above
From the text: To do so, an A549 NSCLC cell line with doxycycline-inducible PD-L1 expression (A549-iPD-L1) was generated. A549 is a Kras G12S lung adenocarcinoma cell line that expresses low PD-L1 at baseline. It has been transduced with PD-L1 in the all-in-one lentivirus pINDUCER20 vector (Meerbrey, et al., 2011), selected with G418, confirmed for PD-L1 induction by flow cytometry (FIG. 37A) and used for in vitro and in vivo studies. Cy5-PD-L1-mAbs binding to doxycycline-treated A549-iPDL1 cells was blocked by WL12 validating the specificity of WL12 (FIG. 37B). […] Accordingly, it is expected that PET will play a key role in quantifying dynamic changes in PD-L1 expression within the standard clinical work flow, providing a novel way to inform therapy decisions.

[4] = target: T3, PD-L1 in hPD-L1 cells (Homo sapiens, UniProt Q9NZQ7); assay: In vitro binding of [64Cu]WL12 to hPD-L1 and CHO cells; type: cell-based; details: compared with WL12
T3 construct: expressed in transfected cells; grown as tumours in NSG mice for the in vivo units
T3 sequence (Q9NZQ7 19-290): as above
Method: 1.4.9. […] After incubation, cells were washed three times with cold PBS prior to counting on an automated gamma counter (1282 Compugamma CS, Pharmacia/LKBNuclear, Inc., Gaithersburg, Md.). […] Mean fluorescence intensity values were correlated with % incubated dose (% ID) uptake. All the cell uptake studies were performed in triplicate for each cell line and repeated three times.

human PD-L1, sequence (Q9NZQ7 19-290): as above

decrease of [64Cu]WL12 binding to doxycycline-treated A549-iPDL1 cells [2]: 65% | decrease of [64Cu]WL12 uptake in A549-iPDL1 tumors [3]: > 75% | potency at inhibiting [64Cu]WL12 binding [4]: more potent than WL12
Substance: AtzMab: therapeutic PD-L1 antibody Atezolizumab
Kd [1]: 430 pM
